Non-standard residues stand in square brackets, D forms with d. Nle = CCCC[C@H](N)C(=O)O; Aib = CC(C)(N)C(=O)O
T1: RXFP1 receptor (UniProt Q9HBX9 1-757, limits assumed)
T1 sequence (looked up): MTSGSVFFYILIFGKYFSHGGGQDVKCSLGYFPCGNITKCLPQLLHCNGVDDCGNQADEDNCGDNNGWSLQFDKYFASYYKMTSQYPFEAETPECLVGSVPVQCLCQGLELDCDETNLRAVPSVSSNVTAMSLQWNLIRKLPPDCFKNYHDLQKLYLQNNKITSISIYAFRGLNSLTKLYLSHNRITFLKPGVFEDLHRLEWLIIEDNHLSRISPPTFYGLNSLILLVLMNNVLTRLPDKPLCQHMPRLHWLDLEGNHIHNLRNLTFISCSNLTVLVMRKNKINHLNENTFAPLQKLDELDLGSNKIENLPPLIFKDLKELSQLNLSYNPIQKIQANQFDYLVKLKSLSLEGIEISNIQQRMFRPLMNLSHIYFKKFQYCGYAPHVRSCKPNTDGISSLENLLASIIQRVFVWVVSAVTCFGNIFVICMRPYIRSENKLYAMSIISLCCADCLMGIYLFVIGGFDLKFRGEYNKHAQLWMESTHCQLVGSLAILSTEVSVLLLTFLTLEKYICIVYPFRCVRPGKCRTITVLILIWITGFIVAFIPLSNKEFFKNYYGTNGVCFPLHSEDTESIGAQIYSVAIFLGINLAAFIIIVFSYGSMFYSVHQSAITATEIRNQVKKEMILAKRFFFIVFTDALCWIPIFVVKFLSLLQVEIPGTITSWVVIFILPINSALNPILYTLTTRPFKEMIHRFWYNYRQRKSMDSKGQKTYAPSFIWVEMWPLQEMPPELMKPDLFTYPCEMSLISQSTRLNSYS

B1: SEQ ID NO: 5 (peptide)
peptide: Ac-LEGREKVRAK(Ac)I[Aib][Aib]EG[Nle]STWS[Aib]RKK(Ac)-NH2
SMILES: CCCC[C@H](NC(=O)CNC(=O)[C@H](CCC(=O)O)NC(=O)C(C)(C)NC(=O)C(C)(C)NC(=O)[C@@H](NC(=O)[C@H](CCCCNC(C)=O)NC(=O)[C@H](C)NC(=O)[C@H](CCCNC(=N)N)NC(=O)[C@@H](NC(=O)[C@H](CCCCN)NC(=O)[C@H](CCC(=O)O)NC(=O)[C@H](CCCNC(=N)N)NC(=O)CNC(=O)[C@H](CCC(=O)O)NC(=O)[C@H](CC(C)C)NC(C)=O)C(C)C)[C@@H](C)CC)C(=O)N[C@@H](CO)C(=O)N[C@H](C(=O)N[C@@H](Cc1c[nH]c2ccccc12)C(=O)N[C@@H](CO)C(=O)NC(C)(C)C(=O)N[C@@H](CCCNC(=N)N)C(=O)N[C@@H](CCCCN)C(=O)N[C@@H](CCCCNC(C)=O)C(N)=O)[C@@H](C)O
B2: SEQ ID NO: 1 (peptide)
peptide: Ac-LEGREKVRAQI[Aib]IEGMSKWSKRKK-NH2
SMILES: CC[C@H](C)[C@H](NC(=O)[C@H](CCC(N)=O)NC(=O)[C@H](C)NC(=O)[C@H](CCCNC(=N)N)NC(=O)[C@@H](NC(=O)[C@H](CCCCN)NC(=O)[C@H](CCC(=O)O)NC(=O)[C@H](CCCNC(=N)N)NC(=O)CNC(=O)[C@H](CCC(=O)O)NC(=O)[C@H](CC(C)C)NC(C)=O)C(C)C)C(=O)NC(C)(C)C(=O)N[C@H](C(=O)N[C@@H](CCC(=O)O)C(=O)NCC(=O)N[C@@H](CCSC)C(=O)N[C@@H](CO)C(=O)N[C@@H](CCCCN)C(=O)N[C@@H](Cc1c[nH]c2ccccc12)C(=O)N[C@@H](CO)C(=O)N[C@@H](CCCCN)C(=O)N[C@@H](CCCNC(=N)N)C(=O)N[C@@H](CCCCN)C(=O)N[C@@H](CCCCN)C(N)=O)[C@@H](C)CC
B3: SEQ ID NO: 50 (peptide)
peptide: Ac-LEGREKVRAQI[Aib][Aib]EG[Nle]STWS[Aib]RRR-NH2
SMILES: CCCC[C@H](NC(=O)CNC(=O)[C@H](CCC(=O)O)NC(=O)C(C)(C)NC(=O)C(C)(C)NC(=O)[C@@H](NC(=O)[C@H](CCC(N)=O)NC(=O)[C@H](C)NC(=O)[C@H](CCCNC(=N)N)NC(=O)[C@@H](NC(=O)[C@H](CCCCN)NC(=O)[C@H](CCC(=O)O)NC(=O)[C@H](CCCNC(=N)N)NC(=O)CNC(=O)[C@H](CCC(=O)O)NC(=O)[C@H](CC(C)C)NC(C)=O)C(C)C)[C@@H](C)CC)C(=O)N[C@@H](CO)C(=O)N[C@H](C(=O)N[C@@H](Cc1c[nH]c2ccccc12)C(=O)N[C@@H](CO)C(=O)NC(C)(C)C(=O)N[C@@H](CCCNC(=N)N)C(=O)N[C@@H](CCCNC(=N)N)C(=O)N[C@@H](CCCNC(=N)N)C(N)=O)[C@@H](C)O
B4: SEQ ID NO: 51 (peptide)
peptide: Ac-LEGREKVRAQI[Aib][Aib]EG[Nle]STFS[Aib]RKK-NH2
SMILES: CCCC[C@H](NC(=O)CNC(=O)[C@H](CCC(=O)O)NC(=O)C(C)(C)NC(=O)C(C)(C)NC(=O)[C@@H](NC(=O)[C@H](CCC(N)=O)NC(=O)[C@H](C)NC(=O)[C@H](CCCNC(=N)N)NC(=O)[C@@H](NC(=O)[C@H](CCCCN)NC(=O)[C@H](CCC(=O)O)NC(=O)[C@H](CCCNC(=N)N)NC(=O)CNC(=O)[C@H](CCC(=O)O)NC(=O)[C@H](CC(C)C)NC(C)=O)C(C)C)[C@@H](C)CC)C(=O)N[C@@H](CO)C(=O)N[C@H](C(=O)N[C@@H](Cc1ccccc1)C(=O)N[C@@H](CO)C(=O)NC(C)(C)C(=O)N[C@@H](CCCNC(=N)N)C(=O)N[C@@H](CCCCN)C(=O)N[C@@H](CCCCN)C(N)=O)[C@@H](C)O

target: T1, RXFP1 receptor; assay: cell-based or functional assay

Going from B1 to B2, the “cAMP assay in OVCAR 5 cells EC50” value rises from 7.4 nM to 42.9 nM (5.8-fold).

First: B3
Second: B4
The “cAMP assay in OVCAR 5 cells EC50” value of the first is 4.2-fold lower: 4.42 nM for the first, 18.6 nM for the second.

Going from B1 to B2, the “cAMP assay in OVCAR 5 cells Emax” value falls from 98% to 91%.

First: B3
Second: B4
The “cAMP assay in OVCAR 5 cells Emax” value of the first is lower: 90% for the first, 98% for the second.
